Data as given in US10907134B2, “Mutated genes for the catalytic protein of oplophorus luciferase and use thereof” (JNC CORPORATION, priority 2013, dated 2021).

What was measured:
[1] = Luminescence activity of ZZ-fused KAZ mutants in crude enzyme solutions; assay type: biochemical; settings: Table 4; ZZ-fused (pCold-ZZ-P-); 1 μL crude enzyme solution, 1 mM DTT; 1 μg coelenterazine
Description: To express the ZZ-fused KAZ mutants in E. coli, the recombinant plasmid prepared in EXAMPLE 6 was used. Crude enzyme solutions were prepared in the same manner as EXAMPLE 4 using the E. coli BL21 strain (Novagen, Madison, Wis.) as a host cell. The resultant crude enzyme solution, 5 μL, was subjected to SDS-PAGE analysis to confirm expression of the proteins (FIG. 2). In FIG. 2, M and 1 to 18 are the same as described in FIG. 1.
DTT was added to the crude enzyme solution obtained in EXAMPLE 7 at a final concentration of 1 mM and the mixture was allowed to stand in an ice water for more than 5 hours. A luminescence reaction was started by adding 1 μL of the crude enzyme solution to 100 μL of TE containing 1 μg of coelenterazine (manufactured by JNC Corp.). The luminescence activity was determined using a luminometer (manufactured by Atto Inc.: AB2200) for 60 seconds, and the maximum intensity of luminescence (Imax) was shown as relative luminescence activity.
To express the ZZ-fused KAZ mutants in E. coli, the recombinant plasmid constructed in EXAMPLE 16 and pCold-ZZ-P-V44I-KAZ, pCold-ZZ-P-A54I-KAZ, pCold-ZZ-P-Y138I-KAZ prepared in EXAMPLE 6 were used. Crude enzyme solutions were prepared in the same manner as EXAMPLE 7, using the E. coli BL21 strain (Novagen, Madison, Wis.) as a host cell. DTT was added to the crude enzyme solutions at a final concentration of 1 mM. The mixtures were allowed to stand over 5 hours on ice, and luminescence activities were then assayed. The luminescence activities were determined by the method described in EXAMPLE 8. Also, 5 μL of the resultant crude enzyme solutions were subjected to SDS-PAGE analysis to confirm protein expression (FIG. 4). In FIG. 4, M and 1 to 9 are as follows. M: molecular weight size markers; 1: ZZ-P-KAZ; 2: ZZ-P-KAZ-V44I; 3: ZZ-P-KAZ-A54I; 4: ZZ-P-KAZ-Y138I; 5: ZZ-P-KAZ-V44I-A54I; 6: ZZ-P-KAZ-V44I-Y138I; 7: ZZ-P-KAZ-A54I-Y138I; 8: ZZ-P-KAZ-V44I-A54I-Y138I; and 9: ZZ-P-dnKAZ.

[2] = Luminescence activity of KAZ mutants (pCold II, E. coli) in supernatant and precipitate of crude enzyme solution; assay type: biochemical; settings: Table 3, pCold II, E. coli BL21, 0.5 μg coelenterazine, 60 seconds
Description: In order to express the KAZ mutants in E. coli, the recombinant plasmid prepared in EXAMPLE 3 was used. The E. coli BL21 strain (Novagen, Madison, Wis.) was used as a host cell. The BL21 strain carrying the recombinant plasmid was incubated in 5 mL of Luria-Bertani medium (hereinafter designated as LB medium) containing ampicillin (50 μg/mL) at 37° C. for 18 hours. This seed culture, 0.1 mL, was inoculated to 10 mL of LB medium and incubated for 3 hours, followed by cooling in an ice-water bath for 1 hour. IPTG was added to the culture medium at a final concentration of 1 mM, followed by incubation at 15° C. for further 20 hours. After completion of the incubation, 1 mL of the cultured medium was harvested by centrifugation at 10,000 rpm for 2 minutes. The thus collected E. coli cells were suspended in 0.5 mL of 30 mM Tris-HCl (pH 7.6)-10 mM EDTA (manufactured by Wako Pure Chemical Industries, Ltd.) (hereinafter designated as TE). The E. coli cells were disrupted by sonication for 3 seconds using a Branson Model 250 Sonifier (Danbury, Conn.) to give a crude enzyme solution. After 0.5 mL of the crude enzyme solution was further centrifuged at 10,000 rpm for 2 minutes to separate the supernatant from the precipitate, the precipitate was suspended in 0.5 mL of TE. Then 20 μL each of the supernatant and precipitate were analyzed by SDS-PAGE to confirm the presence or absence of soluble and insoluble proteins. The results are shown in FIG. 1, wherein M and 1 to 17 denote: M: molecular weight size markers; 1: KAZ; 2 KAZ-A4E; 3: KAZ-Q11R; 4: KAZ-Q18L; 5: KAZ-L27V; 6: KAZ-A33N; 7: KAZ-K43R; 8: KAZ-V44I; 9: KAZ-A54I; 10: KAZ-F68D; 11: KAZ-L72Q; 12: KAZ-M75K; 13: KAZ-I90V; 14: KAZ-P115E; 15: KAZ-Q124K; 16: KAZ-Y138I; 17: KAZ-N166R and 18: dnKAZ.
A luminescence reaction was started by the addition of 5 μL each of the supernatant and precipitate obtained in EXAMPLE 4 to 100 μL of TE containing 0.5 μg of coelenterazine (manufactured by JNC Corp.). The luminescence activity was measured for 60 seconds using a luminometer (manufactured by Atto Corp.: AB2200) and expressed in terms of relative luminescence activity (Imax).
To express the KAZ mutants with two amino acid substitutions and three amino acid substitutions in E. coli using a pCold II vector, the recombinant plasmid constructed in EXAMPLE 13 and pCold-V44I-KAZ, pCold-A54I-KAZ, pCold-Y138I-KAZ prepared in EXAMPLE 3 were used. The supernatant and precipitate of each crude enzyme solution were prepared in the same manner as EXAMPLE 4, using the E. coli BL21 starin (Novagen, Madison, Wis.) as a host cell. The supernatant and precipitate, 20 μL each, were subjected to SDS-PAGE analysis to confirm the presence or absence of soluble proteins and insoluble proteins. In FIG. 3, M and 1 to 9 are as follows. M: molecular weight markers; 1: dnKAZ; 2: KAZ; 3: KAZ-V44I-A54I; 4: KAZ-V44I-Y138I; 5: KAZ-A54I-Y138I; 6: KAZ-V44I-A54I-Y138I; 7: KAZ-V44I; 8: KAZ-A54I; and 9: KAZ-Y138I.
The luminescence activities of 5 μL each of the supernatant and precipitate obtained in EXAMPLE 14 were determined in the same manner as EXAMPLE 5. The luminescence activity was assayed with a luminometer (manufactured by Atto Inc.: AB2200) for 60 seconds, and the maximum intensity of luminescence (Imax) was shown as relative luminescence activity.

CHO-K1 cells = test: Luminescence activity of KAZ mutants expressed in animal culture cells with signal peptide of Gaussia luciferase for secretion; assay type: cell-based, Chinese hamster; settings: Table 5, pcDNA3-GLsp- vectors, CHO-K1, 48 hours, 0.5 μg coelenterazine
Description: Chinese hamster ovary cell line CHO-K1 was cultured in Ham's F-12 medium (manufactured by Wako Pure Chemical Industries, Ltd.) supplemented with 10% (v/v) fetal bovine serum (manufactured by Biowest Inc.). The CHO-K1 cells were plated in a 6-well plate in 1×10^5 cells/well/2 mL medium (n=2) and cultured in an incubator at 37° C. in 5% (v/v) CO2. After 24 hours, the purified recombinant plasmid was transfected to CHO-K1 cells using a FuGene HD transfection kit (manufactured by Promega Corp.), which was provided for subsequent experiment. Specifically, 1 μg of the recombinant plasmid pGL4.13 [Luc2/sv40], 0.1 μg of the internal standard vector and 3 μL of FuGene HD were added to 100 μL of the medium, which was allowed to stand at room temperature for 15 minutes. Subsequently, 100 μL of the DNA-FuGene complex was added to the cells in the 6 wells. After incubation for 48 hours, the culture medium was collected. On the other hand, the KAZ mutants expressed in the cells were washed 3 times with 3 mL of 1×PBS, then suspended in 1 mL of 1×PBS and disrupted on ice by ultrasonication, which was used as enzyme solutions of the cell-extracts of KAZ mutants.
A luminescence reaction was started by adding 5 μL of the culture media and cell extracts obtained in EXAMPLE 10 to 100 μL of 30 mM Tris-HCl (pH 7.6)-10 mM EDTA (manufactured by Wako Pure Chemical Industries, Ltd.) containing 0.5 μg of coelenterazine (manufactured by INC Corp.). The luminescence activity was determined using a luminometer (manufactured by Atto Inc.: AB2200) for 60 seconds, and the maximum intensity of luminescence (Imax) was defined as a percentage.
Culture media of the KAZ mutants with two amino acid substitutions and KAZ mutants with three amino acid substitutions and the enzyme solutions of the cell-extracts of KAZ mutants were prepared in the same manner as EXAMPLE 10.
In the resultant enzyme solutions and the enzyme solutions of the cell-extracts of KAZ mutants, luminescence activities were determined in the same manner as EXAMPLE 11.

Relative Luminescence Activity (Imax) [1]: 0.5
B1: KAZ-A4E: KAZ with single amino acid substitution A4E (protein)
chain: FTLEDFVGDWQQTAGYNQDQVLEQGGLSSLFQALGVSVTPIQKVVLSGENGLKADIHVIIPYEGLSGFQMGLIEMIFKVVYPVDDHHFKIILHYGTLVIDGVTPNMIDYFGRPYPGIAVFDGKQITVTGTLWNGNKIYDERLINPDGSLLFRVTINGVTGWRLCENILA
Relative Luminescence Activity (Imax) Precipitate ([2]; 5 μL precipitate): 0.2
Relative Luminescence Activity (Imax) Supernatant ([2]; 5 μL supernatant): 1.5
Relative Luminescence Activity (Imax) (%) Cell Extracts (CHO-K1 cells; 5 μL cell extracts): 0.1%
Relative Luminescence Activity (Imax) (%) Culture Medium (CHO-K1 cells; 5 μL culture medium): less than 0.01%
